From PMC8012256

Target: cross-linked CA A14C/E45C/W184A/M185A hexamer (HIV-1)
Test: crystal structure

Substance	stoichiometry N	stoichiometry N (Sec24C(228–242) molecules per CA hexamer)
cross-linked CA A14C/E45C/W184A/M185A hexamer (complex)	6	
Sec24C(228–242) peptide (from UniProt P53992-1 228-242)		6
